Consider 2 molecules from patent CN114573691A (EIGHT HOSPITALS IN AFFILIATED CITY OF GUANGZHOU MEDICAL; …, dated 2022).

The term Kd denotes a measure of binding affinity in units of concentration. High values mean lower affinity, low ones higher affinity.

Assay [1] has as its target T1, 新冠病毒SARS-CoV-2变异毒株Delta(B.1.617.2)S1抗原 (SARS-CoV-2, UniProt P0DTC2 16-685).
T1 construct: domain: S1; also called Delta S1
Nature of the assay: SPR (Biacore T200), S1 antigen coupled to CM5 chip, antibody as analyte. Background: In SPR one partner is held on a chip, and binding of the other changes the refractive index at the surface.

In assay [2] the target is T2, 新冠病毒SARS-CoV-2变异毒株Omicron(B.1.1.529)S1抗原 (SARS-CoV-2, UniProt P0DTC2 16-685).
T2 construct: domain: S1; also called Omicron S1; Omicron(B.1.1.529)的S1蛋白
The description is as above.

B1: 中和抗体YB13-208 (antibody, V domains shown)
V domain 1: QITLKESGPTLVKPTQTLTLTCTFSGLSLSTSGVSVGWIRQPPGKAPEWLALIYWDDDKRYSPSLTSRLSITKDTSKNQVVLTMTNMDPVDTATYYCAHPRYYGDSSGYYWIWGQGTMVTVSS
V domain 2: SYELTQPPSVSVSPGQTARITCSGDALPKQYAYWYQQKPGQAPVVVMYKTSERPSGIPERFSGSSSGTTVTLTISGVQAEDEADYYCQSADSSGFYVFGTGTQVTVL
With B1, the Kd in assay [1] is 639 pM; in assay [2], 3110 pM.

B2: 中和抗体YB9-258 (antibody, V domains shown)
VH: EVQLVESGGGLIQPGGSLRLSCAASGLTVSSNYMHWVRQAPGKGLEWVSVLYAGGSAFYADSVKGRFTISRNNSKNTLYLQMNSLRAEDTAIYYCARGLGDYLDSWGQGTLVTVSS
VL: DIQMTQSPSSVSASVGDRVTITCRASQGIGSWLAWYQQKPGKAPQLLIYAASTLQSGVPPRFSGSGSGTDFTLTITSLQPEDFASYYCQQANSVLALTFGGGTKVEIK
In the case of B2, the figures for the Kd in assay [1] and in assay [2] were 833 pM and 4.17 pM, respectively.
